Target: Flag-NLRP3 (UniProt Q96P20)
Experiment: pull-down; competition: purified cytochrome c (100 ng) or BSA added to Flag-NLRP3 immunoprecipitates with HA-NEK7 lysate, 1 hour at room temperature; NEK7 left on the beads read by immunoblot, ImageJ

Chain of Flag-NLRP3 (Q96P20 whole entry): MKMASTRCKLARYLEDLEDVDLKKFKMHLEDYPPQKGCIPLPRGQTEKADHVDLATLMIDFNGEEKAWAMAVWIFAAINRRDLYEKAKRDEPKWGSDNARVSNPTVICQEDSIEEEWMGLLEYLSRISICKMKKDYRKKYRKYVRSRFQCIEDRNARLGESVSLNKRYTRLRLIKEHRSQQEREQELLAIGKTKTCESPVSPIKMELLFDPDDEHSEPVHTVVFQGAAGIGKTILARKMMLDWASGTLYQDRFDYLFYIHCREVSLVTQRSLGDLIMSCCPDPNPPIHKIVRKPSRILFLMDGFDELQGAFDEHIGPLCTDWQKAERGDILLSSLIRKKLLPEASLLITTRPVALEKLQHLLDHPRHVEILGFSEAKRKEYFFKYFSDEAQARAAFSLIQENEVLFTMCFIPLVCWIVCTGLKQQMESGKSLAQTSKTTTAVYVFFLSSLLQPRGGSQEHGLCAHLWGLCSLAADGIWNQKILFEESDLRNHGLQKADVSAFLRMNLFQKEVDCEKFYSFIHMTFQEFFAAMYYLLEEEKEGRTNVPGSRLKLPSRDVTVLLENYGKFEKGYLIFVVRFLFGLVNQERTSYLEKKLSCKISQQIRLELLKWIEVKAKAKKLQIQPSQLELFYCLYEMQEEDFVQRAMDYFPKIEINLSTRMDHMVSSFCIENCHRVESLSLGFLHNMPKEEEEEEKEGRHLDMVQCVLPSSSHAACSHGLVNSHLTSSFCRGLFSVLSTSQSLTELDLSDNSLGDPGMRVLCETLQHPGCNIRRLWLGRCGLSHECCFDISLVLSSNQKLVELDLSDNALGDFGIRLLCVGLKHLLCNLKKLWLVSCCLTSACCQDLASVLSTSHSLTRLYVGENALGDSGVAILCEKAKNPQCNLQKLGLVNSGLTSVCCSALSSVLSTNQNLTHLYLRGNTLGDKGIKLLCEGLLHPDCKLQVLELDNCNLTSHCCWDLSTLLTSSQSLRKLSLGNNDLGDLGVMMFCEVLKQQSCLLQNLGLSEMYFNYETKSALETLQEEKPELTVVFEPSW

percent reduction of NEK7 bound to Flag-NLRP3 (cytochrome c against BSA): 70%
Substance: Purified cytochrome c protein (Sigma-Aldrich) (from UniProt P99999 1-105) (natural protein)

Reference: publication PMC5193325
